Measured values as given in paper PMC2922654 (The Journal of Cell Biology, 2010).
Numbering of substitutions follows the chain as printed.

T1: Sec31EE (residues 370–746, M540E and L544E) (yeast, UniProt P38968 370-746, M540E | L544E)
T1 sequence (looked up): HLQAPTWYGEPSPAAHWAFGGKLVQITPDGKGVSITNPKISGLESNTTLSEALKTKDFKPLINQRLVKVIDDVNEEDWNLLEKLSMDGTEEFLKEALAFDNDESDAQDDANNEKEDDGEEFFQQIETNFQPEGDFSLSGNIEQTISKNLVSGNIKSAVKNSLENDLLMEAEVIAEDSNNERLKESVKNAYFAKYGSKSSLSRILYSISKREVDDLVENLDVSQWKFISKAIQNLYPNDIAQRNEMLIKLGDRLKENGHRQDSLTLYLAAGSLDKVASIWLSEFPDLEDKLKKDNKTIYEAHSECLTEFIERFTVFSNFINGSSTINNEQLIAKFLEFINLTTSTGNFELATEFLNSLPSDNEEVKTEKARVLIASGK

B1: Sec13 (natural protein, S. cerevisiae, UniProt Q04491 1-297, looked up)
chain: MVVIANAHNELIHDAVLDYYGKRLATCSSDKTIKIFEVEGETHKLIDTLTGHEGPVWRVDWAHPKFGTILASCSYDGKVLIWKEENGRWSQIAVHAVHSASVNSVQWAPHEYGPLLLVASSDGKVSVVEFKENGTTSPIIIDAHAIGVNSASWAPATIEEDGEHNGTKESRKFVTGGADNLVKIWKYNSDAQTYVLESTLEGHSDWVRDVAWSPTVLLRSYLASVSQDRTCIIWTQDNEQGPWKKTLLKEEKFPDVLWRASWSLSGNVLALSGGDNKVTLWKENLEGKWEPAGEVHQ
B2: Sec16 central conserved domain (residues 984–1421) (domain or fragment, S. cerevisiae, UniProt P48415 984-1421, looked up)
chain: DNEALLRRQFPIFHWSAANKVVYAVPPIPDQSQYMISSSIVQEIKVTPIDQIIKPNDMLKSFPGPLGSAKLKKKDLTKWMETTIKSISENESSTDMTIWQLLEMKLNDKVNWKNISKLLYNSDELLMYLSQPFPNGDMIPNAYRLDINCQMRVLAFLQTGNHDEALRLALSKRDYAIALLVGSLMGKDRWSEVIQKYLYEGFTAGPNDQKELAHFLLLIFQVFVGNSKMAIKSFYTNNETSQWASENWKSIVAAVLINIPENNEDPLLIPPVVLEFLIEFGIFLTKKGLTAAASTLFIIGNVPLSNEPVMADSDVIFESIGNMNTFESILWDEIYEYIFSYDPKFKGFSSILPQKIYHASLLQEQGLNSLGTKYTDYLSSSVRKLPKKDILTINLTRELSEVASRLSESNTGWLAKPKLSSVWGQLDKSFNKYIGGDD
B3: Sec31ΔL (residues 370–746, deletion of residues 474–507) (domain or fragment, yeast, UniProt P38968 370-746, looked up)
chain: HLQAPTWYGEPSPAAHWAFGGKLVQITPDGKGVSITNPKISGLESNTTLSEALKTKDFKPLINQRLVKVIDDVNEEDWNLLEKLSMDGTEEFLKEALAFDNDESGNIEQTISKNLVSGNIKSAVKNSLENDLLMEAMVIALDSNNERLKESVKNAYFAKYGSKSSLSRILYSISKREVDDLVENLDVSQWKFISKAIQNLYPNDIAQRNEMLIKLGDRLKENGHRQDSLTLYLAAGSLDKVASIWLSEFPDLEDKLKKDNKTIYEAHSECLTEFIERFTVFSNFINGSSTINNEQLIAKFLEFINLTTSTGNFELATEFLNSLPSDNEEVKTEKARVLIASGK
B4: Sec31 (residues 370–746) (domain or fragment, yeast, UniProt P38968 370-746, looked up)
chain: T1 sequence (looked up) with E171M, E175L

Experiments:
[1] = target: B2; experiment: AUC
[2] = target: T1, Sec31EE (residues 370–746, M540E and …); experiment: SEC
[3] = target: the molecule itself; experiment: AUC
[4] = target: the molecule itself; experiment: crystal structure
[5] = target: the molecule itself; experiment: SEC

Binder: B1
- stoichiometry N [1]: 1 Sec13 per Sec16 (printed 2:2)
- stoichiometry N [2]: 1 Sec13 per Sec31EE (printed 1:1)

Binder: B2
- stoichiometry N [3]: 2 copies of Sec16 in the tetramer

Binder: B3
- binding result [4]: binds

Binder: B4
- binding result [5]: binds
